Data set [1] concerns DNA polymerase beta (Pol β) WT (human). The experiment in a line: EMSA. Conditions: EMSA: 50 nM substrate, 50 mM Hepes pH 7.5, 37 mM KCl, 5 mM MgCl2, 0.5 mM EDTA, 100 ug/ml BSA, on ice 10 min, gel at 4 C, FA: 50 mM Hepes pH 7.5, 20 mM KCl, 2 mM.
Data set [2] has as its system Pol β V303C, 5-iodoacetamidofluorescein labeled. In words: fluorescence anisotropy. The conditions noted are these: 5'-phosphorylated tetrahydrofuran at 5' end of nick; biotin at 5' ends; EMSA: 50 nM substrate, 50 mM Hepes pH 7.5, 37 mM KCl, 5 mM MgCl2, 0.5 mM EDTA, 100 ug/ml BSA, on ice 10 min, gel at 4 C; FA: 50 mM Hepes pH 7.5, 20 mM KCl, 2 mM.
Setting [3] is: 5'-phosphorylated tetrahydrofuran at 5' end of nick.

pKd: −log10 of the molar value.

A word on the pKd: it is −log10 of the Kd, conventionally taken in molar units. Low readings indicate a high Kd, high ones a low Kd. For NCP-gI (-49), the pKd in data set [1] (5'-phosphate and 3'-OH at gap) was 6.77.

In the case of DNA-gI (-49), in data set [1] (5'-phosphate and 3'-OH at gap), the pKd was 7.52. This pKd is 0.75 log units higher than that of the substance before.

Consider UND-DNA, for which the pKd in data set [1] is 7.30.

Regarding DNA-5'-P-THF-O (-35), the pKd in data set [1] (setting [3]) was 7.70.

In turn, UND NCP gave a pKd in data set [1] of 6.13.

Take NCP-5'-P-THF-O (-35), 5'-biotin: the pKd in data set [2] was 6.55.

In the case of NCP-gO (-35), the pKd in data set [1] (5'-phosphate and 3'-OH at gap) was 6.34.

On to DNA-gO (-35), for which the pKd in data set [1] (5'-phosphate and 3'-OH at gap) is 7.70. Against the preceding substance, the pKd is 1.36 log units higher.

In data set [1] (setting [3]), NCP-5'-P-THF-O (-35) had a pKd of 6.44.
